Experimental data as given in PMC10725505, “Molecular forms of BMP15 and GDF9 in mammalian species that differ in litter size” (Scientific Reports, 2023).

Legend:
[1] = target: native red deer GDF9 (red deer (endogenous in red deer oocytes)); test: cross-linking; oocyte lysates of sheep, red deer and pig; 2 mM BS3, room temperature, 30 min, reducing SDS-PAGE, beside non-reducing and reducing lanes without cross-linker; Western blot with Mab61A or Mab37A
[2] = target: recombinant pig BMP15 (pig); test: cross-linking; recombinant HEK-293 conditioned media (positive control lanes); 2 mM BS3, room temperature, 30 min; reducing SDS-PAGE; Western blot with Mab61A (BMP15) or Mab37A (GDF9)
[3] = target: recombinant pig GDF9 (pig) (UniProt Q6GUA6); test: as above
recombinant ovine GDF9 = target: T1, recombinant ovine GDF9 (sheep (ovine), UniProt O77681 319-453); test: SPR; ProteOn XPR36; biotinylated hBMPR2 captured (~200 RU) on a streptavidin-coated GLC chip; log2 serial dilutions of partially purified (dialysed, concentrated) 293H-secreted GDF9 or BMP15 as analytes; 25 °C, 100 µl/min; 10 mM HEPES, 500 mM NaCl, 3.4 mM EDTA, 0.005% Tween 20; association 120 s; analyte concentrations not known; details: one partner purified
T1 construct: also called recovGDF9; sheep GDF9; source: 293H-secreted media, dialysed and concentrated (partially purified)
T1 sequence (looked up): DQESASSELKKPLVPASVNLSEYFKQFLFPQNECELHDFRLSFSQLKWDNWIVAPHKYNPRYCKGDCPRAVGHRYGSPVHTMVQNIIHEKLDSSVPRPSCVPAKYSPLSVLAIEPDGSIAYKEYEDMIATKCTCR

## native red deer GDF9 (natural protein)
[1]
  stoichiometry N: 2

## recombinant pig BMP15 (ligand)
[2]
  stoichiometry N: 2

## recombinant pig GDF9 (from UniProt Q6GUA6 1-444) (ligand)
[3]
  stoichiometry N: 2

B1: recombinant human (h)BMPR2 ectodomain (receptor, UniProt Q13873 27-151, looked up)
chain: SQNQERLCAFKDPYQQDLGIGESRISHENGTILCSKGSTCYGLWEKSKGDINLVKQGCWSHIGDPQECHYEECVVTTTPPSIQNGTYRFCCCSTDLCNVNFTENFPPPDTTPLSPPHSFNRDETI
modifications: N-biotinylated using EZ-Link sulfo-NHS-LC-biotin (1:1.2 molar ratio)
notes: human BMPR2, extracellular domain, amino acids 27 to 151; captured on a streptavidin-coated sensor chip by its biotin; also called hBMPR2 ectodomain protein; Type 2 receptor; source: baculoviral infected Sf9 insect cells, purified
Recombinant ovine GDF9
  Kd: ~1 nM
